Assay results taken from patent publication US20220396616A1.

What was measured:
[1] = target: human CLDN18.1 (human) (UniProt P56856); assay: flow cytometry on CLDN18.1-HEK293 cells, 100 µg/mL antibody, replicate 1
[2] = target: human CLDN18.1 (human) (UniProt P56856); assay: flow cytometry on CLDN18.1-HEK293 cells, 100 µg/mL antibody, replicate 3
[3] = target: human CLDN18.1 (human) (UniProt P56856); assay: flow cytometry on CLDN18.1-HEK293 cells, 100 µg/mL antibody, replicate 2

human CLDN18.1 (human), sequence (P56856 whole entry): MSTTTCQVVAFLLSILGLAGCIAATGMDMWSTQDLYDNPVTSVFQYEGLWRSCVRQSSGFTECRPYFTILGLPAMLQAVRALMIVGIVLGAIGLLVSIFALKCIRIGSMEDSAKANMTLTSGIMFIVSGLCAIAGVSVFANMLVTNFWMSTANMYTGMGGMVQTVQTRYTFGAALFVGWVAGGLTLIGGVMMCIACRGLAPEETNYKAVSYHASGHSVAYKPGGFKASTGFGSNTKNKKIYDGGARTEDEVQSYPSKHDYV

positive rate of cell binding [1]: 0.063%
positive rate of cell binding [2]: 0.115%
positive rate of cell binding [3]: 0.233%
Substance: hIgG1 isotype antibody
